The results in this text go back to US20250340655A1, “EPHA2-TARGETING ANTIBODIES AND THEIR APPLICATIONS IN CANCER TREATMENT” (TAIPEI MEDICAL UNIVERSITY, priority 2022, published 2025).

The assay addresses T1, endogenous EphA2 molecules on the four brain tumor cell lines (GBM8901, LN229, T98G and U87MG) (Homo sapiens, UniProt P29317).
T1 construct: identifying endogenous EphA2 molecules on the four strains of brain tumor cell lines; endogenous in cells; host or cells: GBM8901, LN229, T98G, U87MG
The experiment in a line: Flow cytometry binding on brain tumor cell lines. The conditions noted are these: flow cytometry (FIG. 16B). An excerpt: Flow cytometry was used to analyze the response of hSD5 IgG in identifying endogenous EphA2 molecules on the four strains of brain tumor cell lines. PC represents the use of commercial Ab to determine the expression of EphA2 on cancer cells; NC represents the control group with irreverent of the isotype IgG1 antibody. (FIG. 16B)
The hSD5 was used to identify endogenous EphA2 molecules on the four brain tumor cell lines by flow cytometry analysis. PC uses a commercial anti-EphA2 antibody, and NC is the control group with irreverent of the isotype IgG1.

T1 sequence (P29317 24-976, stated change not applied): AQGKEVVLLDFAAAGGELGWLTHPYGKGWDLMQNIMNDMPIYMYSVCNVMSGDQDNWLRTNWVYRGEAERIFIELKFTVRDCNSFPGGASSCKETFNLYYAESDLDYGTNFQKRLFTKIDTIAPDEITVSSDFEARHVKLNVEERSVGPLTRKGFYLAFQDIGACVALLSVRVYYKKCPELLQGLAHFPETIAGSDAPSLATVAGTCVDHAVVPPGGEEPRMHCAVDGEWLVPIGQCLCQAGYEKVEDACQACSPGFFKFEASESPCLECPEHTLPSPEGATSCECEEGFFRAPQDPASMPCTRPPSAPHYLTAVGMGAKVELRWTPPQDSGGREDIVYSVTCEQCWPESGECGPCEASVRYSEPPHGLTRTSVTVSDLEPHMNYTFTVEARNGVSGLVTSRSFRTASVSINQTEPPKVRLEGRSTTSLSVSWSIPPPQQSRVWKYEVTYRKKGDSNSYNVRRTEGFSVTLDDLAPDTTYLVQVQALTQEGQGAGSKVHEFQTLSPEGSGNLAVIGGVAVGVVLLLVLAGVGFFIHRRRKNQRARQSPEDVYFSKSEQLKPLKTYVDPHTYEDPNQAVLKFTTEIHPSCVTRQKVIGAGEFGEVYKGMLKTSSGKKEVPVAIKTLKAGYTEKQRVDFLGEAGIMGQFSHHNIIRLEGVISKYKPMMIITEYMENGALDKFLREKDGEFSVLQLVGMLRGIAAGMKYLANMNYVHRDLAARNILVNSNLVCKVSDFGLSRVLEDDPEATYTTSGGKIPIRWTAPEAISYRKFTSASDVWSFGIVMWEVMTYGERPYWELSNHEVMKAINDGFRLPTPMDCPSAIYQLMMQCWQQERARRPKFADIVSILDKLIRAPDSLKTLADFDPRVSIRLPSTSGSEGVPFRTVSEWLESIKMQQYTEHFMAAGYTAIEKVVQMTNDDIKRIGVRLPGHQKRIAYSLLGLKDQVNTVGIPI

B1: IgG hSD5: complete humanized anti-EphA2 IgG (IgG1) of hSD5 (antibody, V domains shown)
VH: QVQLVESGGGLVQPGGSLRLSCAASGFTFSDYGMGWVRQAPGKGLEWVAGISAAGSFTPYGAAVKGRFTISRDNSKNTVYLQMNSLRAEDTAVYYCARIPSGYRAGEIYTWGQGTLVTVSS
VL: LTQPPSVSVSPGQTVRITCSGSSGSYGWYQQKSPGQAPVTLIYDNDKRPSGIPERFSGSSSGSTSTLTISGVQAEDEADYYCGSADSSTYVGMFGGGTKLTVL
Turning to B1, the “binding response to EphA2 molecules on brain cancer cells” value is reported as “significant binding response”.
